Assay: yeast display, Sf9 membrane polyspecificity reagent, FACS + sequencing; frameworks hold sequencing errors
Outline: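 Nanobodies from a synthetic yeast display library (Saccharomyces cerevisiae BJ5465), induced 36–48 hours with galactose, were stained 1 hour at 4 °C with 10% biotinylated, detergent-solubilized Sf9 membrane reagent, enriched on streptavidin microbeads, then FACS-sorted. Anti-HA (expression) and streptavidin (reagent binding) fluorescence set low and high (top ~1%) gates. Polyreactivity labels come from the gate of origin. Genes were colony-PCR amplified, MiSeq 2 × 250 sequenced and filtered by CDR length.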

Sequence | polyreactivity (PSR sort gate)
QVQLVESGGGLVQAGGSLRLSCAASGRIFAHNAMGWYRQPPGKARELVAAITWSGGSTYYADSVKGRFTISRDNAKKTVYLQMNSLNPEDTAVYYCNNDSHGHLYNYWGQGTQVCVSS | low polyreactivity
QVQLVESGGGLVQAGGSLRLSCAASGRIFAINTMGWYRQAPGKERELVAAINNGGSTNYADSVKGRFTISRDNAKNTVYLQMNSLKPEDTAVYYCAAEGLPYVRVFDFVSRYDYWGQGTQVTVSS | low polyreactivity
QVQLVESGGGLVQAGGSLRLSCAASGRIFALNVMGWYRQAPVKERELFAVINRSGNTNYADSVKGRFTSSRDNAKNTVYLQMNSLKPEDTAVYYCAARRVGYGTDRYYGYDSWGQGTQVTVSS | high polyreactivity
QVQLVESGGGLVQAGGSLRLSCAASGRIFANYAMGWYRQAPGKERELVAAIYWSDDDTYYADSVKGRFTISRDNAKNTVYFQMNRLIPEDTAVYYCAADGRYGWYYGVYNGEDYWGQGTQVTVSS | high polyreactivity
QVQLVESGGGLVQAGGSLRLSCAASGRIFAQNAMGWYRQAPGKERELVAAISWGGGGTYYADSVKGRFTISRDNAKNTVYLQMNSLKPEDTAVYYCAADSPGFGAWDRYEYWGQGTQVTVSW | low polyreactivity
QVQLVESGGGLVQAGGSLRLSCAASGRIFARNAMGWYRQAPGKERELVAAISWSGGRTYYADSVKGRFTISRDNAKNTVYLQMNSLKPEDTAVYYCAADHYPWWAWEFDYWGQGTQVTVSS | low polyreactivity
QVQLVESGGGLVQAGGSLRLSCAASGRIFARNAMGWYRQAPGKERELVAAITYSGGSTYYADSVKGRFTISRDNAKNTVYLQMNSLKPEDTAVYYCAAETSNRGRRYYYWGQGTQVTVSS | high polyreactivity
QVQLVESGGGLVQAGGSLRLSCAASGRIFARYAKGWSRQAPGKERELVAAISRGGSTKNADSVKGRFTISRDNAKITVYLQMNSLKPEDTAVYYCATEYYGPVYDLDYDYWGQGTQVTVSS | low polyreactivity
QVQLVESGGGLVQAGGSLRLSCAASGRIFARYAMGWYRQAPGKERELVAAITNVGSTYADSVKGRFTISRDNAKNTVYLQMNSLKPEDTAVYYCAARSKYDQVRATFWLFDYWGQGTQVTVSS | low polyreactivity
QVQLVESGGGLVQAGGSLRLSCAASGRIFARYAMGWYRQAPGKERELVAAITSRGGSTYYADSVKGRFTISRDNAKNTVYLQMNSLKPEDTAVYYCNADYYRRPYYYWGQGTQVTVSS | high polyreactivity
QVQLVESGGGLVQAGGSLRLSCAASGRIFARYAMGWYRQAPGKERELVASINSGGNTYYADSVKGRFTISRDNAKNTVYLQMNSLKPEDTAVYYCAAVVGRRASSRSRFEYDYWGQGTQVTVSS | low polyreactivity
QVQLVESGGGLVQAGGSLRLSCAASGRIFARYVMGWYRQAPGKERELVAAISRRAGNTYYADSVKGRFTISRDNAKNTVYLQMNSLKPEDTAVYYCAVRYSYYALSTSRYGYWGQGTQVTVSS | high polyreactivity
QVQLVESGGGLVQAGGSLRLSCAASGRIFASYAMGWYRQAPGKERELVAAISLSGGSTYYADSVKGRFTISRDNAKNTVYLQMNSLKPEDTAVYYCAAKNYRRYRDYYWGQGTQVTVSS | high polyreactivity
QVQLVESGGGLVQAGGSLRLSCAASGRIFATNAMGLYRPAPGKERELVATITRSAGRTYYADSVKGRFTISRDNAKNTVYLQMNSLKPEDTAVYYCAASYWDTEPGYREYVYWGQGTQVTVSS | low polyreactivity
QVQLVESGGGLVQAGGSLRLSCAASGRIFATNAMGWYRPAPGKERELVATITRSAGRTYYADSVKGRFTISRDNAKNTVYLQMNSLKPEDTAVYYCAASYWDTEPGYREYDYWGQGTQVTVSS | low polyreactivity
QVQLVESGGGLVQAGGSLRLSCAASGRIFAVYAMGWYRQAPGKERELVAAISWSGGRTNYADSVKGRFTISRDNAKKTVYLQMNSLKPEDTAVYYCNARQWRFGFVASGGKYNYWGQGTQVTVSA | high polyreactivity
QVQLVESGGGLVQAGGSLRLSCAASGRIFAWYAMGWYRQAPGKDRELVAAISDSGGSTYYADSVKGRFTISRDNAKNTVYLQMNSLKPEVTAVYYWAADQVVYYAYWSDHYDDWGQGTQVTVSS | low polyreactivity
QVQLVESGGGLVQAGGSLRLSCAASGRIFAWYAMGWYRQAPGKEREFVAAISRGGSTYYADSVKGRFTISRDNAKNTVYLQMNSLKPEDTAVYYCAASSPSSGRFDYWGQGTQVTVSS | high polyreactivity
QVQLVESGGGLVQAGGSLRLSCAASGRIFAYNTMGWYREAPGKERELVAVSTSGGSTNYADSVKGRFTISRDNAKNTVYLQMNSLKPEDSAVYYCAKRPYGRSGGSRYDYWGQGTQVTVSS | high polyreactivity
QVQLVESGGGLVQAGGSLRLSCAASGRIFAYNTMGWYRQAPGKERELVAVITSGGSTNYADSVNGRFTISRDNAKNTVYLQMNSLKPEDTAVYYCAKRPYGRSGGSRYDYWGQGTQVTVSS | high polyreactivity
QVQLVESGGGLVQAGGSLRLSCAASGRIFAYNTMGWYRQAPRKERELVAVITSGGATNYADSVKGRFTISRDNAKNTVYLQMNSLKPEDTAVYYCAKRPYGRSGGSRYDYWGQGTQVTVSS | high polyreactivity
QVQLVESGGGLVQAGGSLRLSCAASGRIFAYYAMGWYRQAPGKERELVAAINRSGVRTYYADSVKGRFTISRDNAKNTVYLQMNSLKPEDTAVYYCAAPGQHSWGQGTQVTVSS | high polyreactivity

Sequence | polyreactivity (PSR sort gate)
QVQLVESGGGLVQAGGSLRLSCAASGRIFAYYAMGWYRQAPGKERELVAAISRSGGSTYYADSVKGRFTISRDNAKNTVYLLMNSLKPEDTAVYYCNVVRVRYYWWEFDYWGQGTQVTVSS | high polyreactivity
QVQLVESGGGLVQAGGSLRLSCAASGRIFAYYAMGWYRQAPGKERELVAAISRSGVSTYYADSVKGRFTISRDNAKNTVYLQMNSLKPEDTAVYYCDARWRSGFTSVDYWGQGTQVTVSS | low polyreactivity
QVQLVESGGGLVQAGGSLRLSCAASGRIFAYYAMGWYRQAPGKERELVATINYSGTSTYYADSVKGRFTISRDNAKNTVYLQMNSLKPEDTAFYYCAADLTSRLLWYHIERFDYWGQGTQVTVSS | high polyreactivity
QVQLVESGGGLVQAGGSLRLSCAASGRIFAYYAMGWYRQAPGKERELVATISTGGGTYYADSVKGRFSISRDNAKNTVYLQMNSLKPEDTAVYYCAAAPYWYYGYYYWGQGTQVTVSS | high polyreactivity
QVQLVESGGGLVQAGGSLRLSCAASGRIFAYYAMGWYRQAPGKERELVAVISKSGGSTNYADSVKGRFTISRDYAKNTVYLQMNSLKPEDTAVYYCAKRAYDPEMYYWGQGTQVTVSS | low polyreactivity
QVQLVESGGGLVQAGGSLRLSCAASGRIFAYYAMGWYRQAPGKEREMVAAISRSGGSTYYADSVKGRFPISRDNAKNTVYLQMNSLKPEDTAVYYCAASLKVPYATMNYWGQGTQVTVSS | high polyreactivity
QVQLVESGGGLVQAGGSLRLSCAASGRIFCGYAMGWYRQAPGKERELVAAITSGGRTYYADSVKGRFTISRDNAKNTVYLQMNSLKPEDTAVYYCAAVYVPYYWLGRSRGLDYWGQGTQVTVSS | high polyreactivity
QVQLVESGGGLVQAGGSLRLSCAASGRIFDDYAMGWNRQAPGKERELVAAISSSVGNTYYADSVKGRFTISRDNAKYTVYLQMNSLKPEDTAVYYCADYSYVRSSYEVEYDYWGQATQVTVSS | low polyreactivity
QVQLVESGGGLVQAGGSLRLSCAASGRIFDFNAMGWYRQAPGKEREFVAAIRTSGGDSTYYADSVKGRFTISRDNAKNTVYLQMNSLKPEDTAVYYCAKTVWWYYRYPFDYWGQGTQVTVSS | low polyreactivity
QVQLVESGGGLVQAGGSLRLSCAASGRIFDFNAMGWYRQAPGKEREFVAAIRTSGGDSTYYADSVKGRFTISRDNEKNTVYLQMNSLKPEDTAVYYCAKTVWWYYRYPFDYWGQGTQVTVSS | low polyreactivity
QVQLVESGGGLVQAGGSLRLSCAASGRIFDGYAMGWYRQAPGKERELVAAISSRGGRTYYADSVKGRFTISRDNAKNTVYLQMNSLKPEDTAVYYCAADDPYGEGDYWGQGTQVTVSS | low polyreactivity
QVQLVESGGGLVQAGGSLRLSCAASGRIFDHYAMGSYRQAPGKERELVAAISGGGDSTYYAYSVKGRFTISRDNAKNTVYLQMNSLKPEDTAVFYCAADFYVYWGNYAQDYYYWGQGTQVTVSS | high polyreactivity
QVQLVESGGGLVQAGGSLRLSCAASGRIFDIYAMGWYRPAPRKERELVAAITRRGGTTYADSVKGRFTISRDNAKNTVYLQMNSLKPEVNAVYYCAAGLYFRKWYSWTRYEYWGQGTQVTVSS | high polyreactivity
QVQLVESGGGLVQAGGSLRLSCAASGRIFDIYTMGWYRQAPGNERELVASITKRGGSTYYADSVKGRFTISRDNAKNTVYLQMNSLKPEDTAVYYCNVAGKQKPYYVTTRLDYWGQGTQVTVSS | high polyreactivity
QVQLVESGGGLVQAGGSLRLSCAASGRIFDLNAMGWYRQAPGKERELVAVITGSGGSTYYADSVKGRFTISRDNAKNTVYLQMNSLKPEDTAVYYCNAYTQQYRSYGYWGQGTQVTVSS | low polyreactivity
QVQLVESGGGLVQAGGSLRLSCAASGRIFDLYTMGWYRQAPGKERELVAAIRWSDGSTYYADSVTGRFTISRDNAKNTVYLQMNSLKPEDTAVYYCAADTRTSYYNDDYDYWGQGTQVTVSS | low polyreactivity
QVQLVESGGGLVQAGGSLRLSCAASGRIFDLYTMGWYRQAPGKERELVAAITSSGDSTYYADSVKGRFTISRDNAKNTVYLQMNSLKPEDTAVYYCAAESKYWEPWWYYYYDMDYWGQGTQVTVSS | low polyreactivity
QVQLVESGGGLVQAGGSLRLSCAASGRIFDNYAMGWYRQAPGKERELVAAITYIDSGTYYADSVKGRFTISRDNAKNTVYLQMNSLKPEDTAVYYCAVRLNSDSKRKTQKFGYWGQGTQVTVSS | low polyreactivity
QVQLVESGGGLVQAGGSLRLSCAASGRIFDNYAMGWYRQAPGKERELVAAITYIDSGTYYADSVKGRFTISRDNAKNTVYLQMNSLKPEDTAVYYCAVRLNSDSKRKTQKYGYWGQGTQVTVSS | low polyreactivity
QVQLVESGGGLVQAGGSLRLSCAASGRIFDPNAMGWYRQAPGKERELVARIRWWSDGSTYYADSVKGRFTISRDNAKNTVYLQMNSLKPEDTAVYYCATTANRVYGYAPWFGPRSEYWGQGTQVTVSS | high polyreactivity
QVQLVESGGGLVQAGGSLRLSCAASGRIFDRNAMGWSRQAPGKERELVAAITRSGGRTYYADSVKGRFTISRDNAKYTVYLQMNSLKPEDTAVYYCNRGYPRSVVHYNSWGQGTQVTVSS | high polyreactivity
